From paper doi:10.1101/2023.11.18.567679 (bioRxiv, 2023)

T1: Tse15 central Rhs domain (residues 335-1395) (Acinetobacter baumannii (strain …, UniProt A0A5K6CSR3 335-1395))
T1 sequence (looked up): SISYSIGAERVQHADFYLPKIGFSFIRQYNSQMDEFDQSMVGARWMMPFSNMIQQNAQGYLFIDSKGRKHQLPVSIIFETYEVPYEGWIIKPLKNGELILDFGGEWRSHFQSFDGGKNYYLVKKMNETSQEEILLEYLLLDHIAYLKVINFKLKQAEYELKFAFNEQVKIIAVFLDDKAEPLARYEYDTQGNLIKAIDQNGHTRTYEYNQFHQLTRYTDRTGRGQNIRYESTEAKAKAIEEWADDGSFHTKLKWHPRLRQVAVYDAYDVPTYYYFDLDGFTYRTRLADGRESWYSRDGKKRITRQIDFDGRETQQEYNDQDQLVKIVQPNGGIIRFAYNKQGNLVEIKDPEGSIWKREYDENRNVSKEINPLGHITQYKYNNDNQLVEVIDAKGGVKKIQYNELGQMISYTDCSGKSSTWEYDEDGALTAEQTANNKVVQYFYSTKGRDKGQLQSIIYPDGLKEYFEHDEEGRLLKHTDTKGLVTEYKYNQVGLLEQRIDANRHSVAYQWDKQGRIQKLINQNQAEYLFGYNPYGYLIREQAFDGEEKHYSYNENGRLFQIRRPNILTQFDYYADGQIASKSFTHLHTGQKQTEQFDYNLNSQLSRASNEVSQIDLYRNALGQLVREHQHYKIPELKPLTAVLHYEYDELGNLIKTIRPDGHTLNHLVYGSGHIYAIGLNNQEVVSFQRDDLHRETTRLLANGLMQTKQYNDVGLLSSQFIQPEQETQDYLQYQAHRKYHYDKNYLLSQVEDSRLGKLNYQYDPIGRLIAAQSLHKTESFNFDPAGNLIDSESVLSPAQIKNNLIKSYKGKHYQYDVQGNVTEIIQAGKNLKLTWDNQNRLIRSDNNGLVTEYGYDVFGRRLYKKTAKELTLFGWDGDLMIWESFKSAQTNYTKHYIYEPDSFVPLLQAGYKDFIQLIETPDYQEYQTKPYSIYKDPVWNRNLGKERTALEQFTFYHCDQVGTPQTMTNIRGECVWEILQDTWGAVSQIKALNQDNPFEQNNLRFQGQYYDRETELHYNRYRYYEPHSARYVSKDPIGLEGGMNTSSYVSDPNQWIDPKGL

B1: Tse15 N-terminal clade domain (residue 1-334) (domain or fragment, UniProt A0A5K6CSR3 1-334, looked up)
chain: MAKENTQQKEIKRQPAVELAVFNLNSVTDVADLQMIASQVQLYLQVCGNTTLEQIKSKANITTVANIFALTGSVLDLMLYATDKKTGDAAVQRGALLAANLIGLFSEPNNEAHARMALRPMFGLMAECLYRENGKIKETDIKRLGLHLNAMIAGDLENFLKETQAKLSSLLISATTLGVTILQSMATPATGINAGITTAAGASAEKRDPKLKFTNWAVPLIDLLGKPSQANLTPKIQPNITSRLQQEATQAIAALSQTLQQQANAGQKYTLAWLLQETLKAIQALENKGNASVPINQTGEYERHTKGDTLEFVSLQADALNAPPCEGADSQSGK

Experiments:
[1] = target: T1, Tse15 central Rhs domain (residues …); test: SEC
[2] = target: B1; test: pull-down
[3] = target: T1, Tse15 central Rhs domain (residues …); test: pull-down

Binder	binding result [1]	binding result [2]	binding result [3]
B1	binds		
Tse15 toxic C-terminal domain (residues 1396-1590) (domain or fragment, UniProt A0A5K6CSR3 1396-1590, looked up) NSFNYGEMFGIPASAQSGLAYQGQRNYECYAETGELCKIKVPPLFDYVACSGGGLGIGVGFVKNQWTGEYYISGSKDSLLIPVAKSVAQNKQFSAKDLAGASCVGGNIHNIPSYTKTTMTMGEITNEFVSGASVTVGGGAYGAVANVVVPLVSKSSPVKGTWASELGVGTPGFNVGVSGTVSVDTILDAVKPSKK		binds	binds
